The results in this text go back to US20090291081A1 (AbbVie / Abbott, published 2009).

For orientation: EC50 means the concentration needed to bring the measured effect to its halfway point. Lower therefore signals greater potency.

T1: human IL-1α (human, UniProt P01583 113-271)
T1 construct: also called IL-1alpha; hIL-1α
T1 sequence (looked up): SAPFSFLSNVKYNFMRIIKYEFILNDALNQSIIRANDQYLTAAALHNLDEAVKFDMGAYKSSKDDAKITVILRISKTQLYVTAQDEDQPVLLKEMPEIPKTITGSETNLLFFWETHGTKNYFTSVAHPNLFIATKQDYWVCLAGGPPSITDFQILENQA

B1: ABT1-122-750xH (other)
VL: DIQMTQSPSSLSASVGDRVAITCSASQHIWTEISWYQQKPGKAPKLLIYGSASRQKGVPSRFSGSGSGTDFTLTISSLQPEDFATYHCKQFAYFPNTFGQGTKVEIKR
notes: VK dAb
B2: ABT1-122-556 (other)
VL: DIQMTQSPSSLSASVGDRVTITCRASQPIWTELNWYQQKPGKAPKLLIYGSSSLQSGVPSRFSGSGSGTDFTLTISSLQPEDFATYHCQQFAYFPATFGQGTKVEIKR
notes: VK dAb
B3: ABT1-122-750M (other)
VL: DIQMTQSPSSLSASVGDRVTITCSASQHIWTEMSWYQQKPGKAPKLLIYGSASRQKGVPSRFSGSGSGTDFTLTISSLQPEDFATYYCKQFAYFPNTFGQGTKVEIKR
notes: VK dAb
B4: ABT1-122-512 (other)
VL: DIQMTQSPSSLSASVGDRVTITCRASQPIWTELNWYQQKPGKAPKLLIYGSAKRQRGVPSRFSGSGSGTDFTLTISSLQPEDFATYYCKQFAYFPATFGQGTKVEIKR
notes: VK dAb
B5: ABT1-122-750MT (other)
VL: DIQMTQSPSSLSASVGDRVTITCSASQHIWTEMSWYQQKPGKTPKLLIYGSASRQKGVPSRFSGSGSGTDFTLTISSLQPEDFATYYCKQFAYFPNTFGQGTKVEIKR
notes: VK dAb
B6: ABT1-122-750MH (other)
VL: DIQMTQSPSSLSASVGDRVTITCSASQHIWTEMSWYQQKPGKAPKLLIYGSASRQKGVPSRFSGSGSGTDFTLTISSLQPEDFATYHCKQFAYFPNTFGQGTKVEIKR
notes: VK dAb
B7: ABT1-122-551 (other)
VL: DIQMTQSPSSLSASVGDRVTITCRAKFNIWTELNWYQQKPGKTPKLLIYGSSSLQSGVPSRFSGSGSGTDFTLTISSLQPEDFATYYCQQFAYFPATFGQGTKVEIKR
notes: VK dAb
B8: ABT1-122-552 (other)
VL: DIQMTQSPSSLSASVGDRVTITCRASLGVWTELNWYQQKPGKAPKLLIYGSSSLQSGVPSRFSGSGSGTDFTLTISSLQPEDFATYYCQQFAYFPATFGQGTKVEIKR
notes: VK dAb
B9: ABT1-122-555 (other)
VL: DIQMTQSPSSLSASVGDRVTITCRASQPIWTELNWYQQKPGKTPKLLIYGSSSLQSGVPSRFSGSGSGTDFTLTISSLQPEDFATYYCQQFAYFPATFGQGTKVEIKR
notes: VK dAb
B10: ABT1-122-508 (other)
VL: DIQMTQSPSSLSASVGDRVTITCRASQPIWTELNWYQQKPGKAPKLLIYGSSSLQRGVPSRFSGSGSGTDFTLTISSLQPEDFATYYCQQFAYFPATFGQGTKVEIKR
notes: VK dAb
B11: ABT1-122-505 (other)
VL: DIQMTQSPSSLSASVGDRVTITCRASQPIWTELNWYQQKPGKAPKLLIYGSSSLQSGVPSRFSGSGSGTDFTLTISSLQPEDFATYYCKQFAYFPATFGQGTKVEIKR
notes: VK dAb
B12: ABT1-122-510 (other)
VL: DIQMTQSPSSLSASVGDRVTITCRFSYPIWTELNWYQQKPGKAPKLLIYGSSSLQSGVPSRFSGSGSGTDFTLTISSLQPEDFATYYCQQFAYFPATFGQGTKVEIKR
notes: VK dAb
B13: ABT1-122-513 (other)
VL: DIQMTQSPSSLSASVGDRVTITCRASQPIWTELNWYQQKPGKAPKLLIYGSGSRQRGVPSRFSGSGSGTDFTLTISSLQPEDFATYYCKQFAYFPATFGQGTKVEIKR
notes: VK dAb
B14: ABT1-95-A4 (other)
VL: DIQMTQSPSSLSASVGDRVTITCRASRPGVRNLRWYQQKPGKAPKLLIYSRSFLEPGVPSRFSGSGSGTDFTLTISSLQPEDFATYHCLQGYRWPPTFGQGTKVEIKR
notes: VK dAb
B15: ABT1-95-A1 (other)
VL: DIQMTQSPSSLSASVGDRVTITCRASRPGVRNLRWYQQKPGKAPKLLIYHVSDLEPGVPSRFSGSGSGTDFTLTISSLQPEDFATYHCRQGYVWPVPFDQGTKVEIKR
notes: VK dAb
B16: ABT1-122-553 (other)
VL: DIQMTQSPSSLSASVGDRVTITCRASQPIWTELKWYQQKPGKAPKLLIYGSSSLQSGVPSRFSGSGSGTDFTLTISSLQPEDFATYYCQQFAYFPATFGQGTKVEIKR
notes: VK dAb
B17: ABT1-222 (other)
VL: DIQMTQSPSSLSASVGDRVTITCRASQPITRNLRWYQQKPGKAPKLLIYHSSVLQSGVPSRFSGSGSGTDFTLTISSLQPEDFATYYCQQGYRWPVTFGQGTKVEIKR
notes: VK dAb
B18: ABT1-207 (other)
VH: EVQLLESGGGLIQPGGSLRLSCAASGFTFGRYYMSWVRQAPGKGLEWVSSIDYLGTNTYYADSVKGRFTISRDNSKNTLYLQMNSLRAEDTAVYYCAKLTRIRPPNFDYWGQGTLVTVSS
notes: VH dAb
B19: ABT2-108-612 (other)
VH: EVQLLESGGGLVQPGGSLRLSCAASGFTFAEYTMMWVRQAPGKGLEWVSRIGQDGKNTYYADSVKGRFTISRDNSKNTLYLQMNSLRAEDTAVYYCAKYTGRIMGHHLFDYWGQGTLVTVSS
notes: VH dAb
B20: ABT2-108-607 (other)
VH: EVQLLESGGGLVQPGGSLRLSCAASGFTFAEYTMMWVRQAPGKGLEWVSRIGQDGKNTYYRSDVKGRFTISRDNSKNTLYLQMNSLRAEDTAVYYCAKYTGRVGVHHLFDYWGQGTLVTVSS
notes: VH dAb
B21: ABT2-108-617 (other)
VH: EVQLLESGGGLVQPGGSLRLSCAASGFTFAEYTMMWVRQAPGKGLEWVSRIGQDGKNTYYADSVKGRFTISRDNSKNTLYLQMNSLRAEDTAVYYCAKYTGRIFTHHLFDYWGQGTLVTVSS
notes: VH dAb
B22: ABT2-108-604 (other)
VH: EVQLLESGGGLVQPGGSLRLSCAASGFTFAEYTMMWVRQAPGKGLEWVSRVTYDGKNTYYADSVKGRFTISRDNSKNTLYLQMNSLRAEDTAVYYCAKYTGRVGVHHLFDYWGQGTLVTVSS
notes: VH dAb
B23: ABT2-108-605 (other)
VH: EVQLLESGGGLVQPGGSLRLSCAASGFTFAEYTMMWVRQAPGKGLEWVSRIGQDGKNTYYREDVKGRFTISRDNSKNTLYLQMNSLRAEDTAVYYCAKYTGRVGVHHLFDYWGQGTLVTVSS
notes: VH dAb
B24: ABT2-108-620x (other)
VH: EVQLLESGGGLVQPGGSLRLSCAASGFTFAEESWMWVRQAPGKGLEWVSRIGQDGKNTYYREDVKGRFTISRDNSKNTLYLQMNSLRAEDTAVYYCAKYTGRIMGHHLFDYWGQGTLVTVSS
notes: VH dAb
B25: ABT2-108-620S (other)
VH: EVQLLESGGGLVQPGGSLRLSCAASGFTFSEESWMWVRQAPGKGLEWVSRIGQDGKNTYYREDVKGRFTISRDNSKNTLYLQMNSLRAEDTAVYYCAKYTGRIMGHHLFDYWGQGTLVTVSS
notes: VH dAb
B26: ABT2-108-603 (other)
VH: EVQLLESGGGLVQPGGSLRLSCAASGFTFAEYTMMWVRQAPGKGLEWVSRITDAGKNTYYADSVKGRFTISRDNSKNTLYLQMNSLRAEDTAVYYCAKYTGRVGVHHLFDYWGQGTLVTVSS
notes: VH dAb
B27: ABT2-108-606 (other)
VH: EVQLLESGGGLVQPGGSLRLSCAASGFTFAEYTMMWVRQAPGKGLEWVSRIGQDGKNTYYRSSVKGRFTISRDNSKNTLYLQMNSLRAEDTAVYYCAKYTGRVGVHHLFDYWGQGTLVTVSS
notes: VH dAb
B28: ABT2-108/ABT1-122 Fab on yeast surface (Fab, V domains shown)
VH: EVQLLESGGGLVQPGGSLRLSCAASGFTFAEYTMMWVRQAPGKGLEWVSRIGQDGKNTYYADSVKGRFTISRDNSKNTLYLQMNSLRAEDTAVYYCAKYTGRVGVHHLFDYWGQGTLVTVSS
VL: DIQMTQSPSSLSASVGDRVTITCRASQPIWTELNWYQQKPGKAPKLLIYGSSSLQSGVPSRFSGSGSGTDFTLTISSLQPEDFATYYCQQFAYFPATFGQGTKVEIKR
B29: ABT2-108-601/ABT1-122 Fab on yeast surface (Fab, V domains shown)
VH: EVQLLESGGGLVQPGGSLRLSCAASGFTFAEESWMWVRQAPGKGLEWVSRIGQDGKNTYYADSVKGRFTISRDNSKNTLYLQMNSLRAEDTAVYYCAKYTGRVGVHHLFDYWGQGTLVTVSS
VL: DIQMTQSPSSLSASVGDRVTITCRASQPIWTELNWYQQKPGKAPKLLIYGSSSLQSGVPSRFSGSGSGTDFTLTISSLQPEDFATYYCQQFAYFPATFGQGTKVEIKR
B30: ABT2-108-602/ABT1-122 Fab on yeast surface (Fab, V domains shown)
VH: EVQLLESGGGLVQPGGSLRLSCAASGFTFAEEKYMWVRQAPGKGLEWVSRIGQDGKNTYYADSVKGRFTISRDNSKNTLYLQMNSLRAEDTAVYYCAKYTGRVGVHHLFDYWGQGTLVTVSS
VL: DIQMTQSPSSLSASVGDRVTITCRASQPIWTELNWYQQKPGKAPKLLIYGSSSLQSGVPSRFSGSGSGTDFTLTISSLQPEDFATYYCQQFAYFPATFGQGTKVEIKR

The first assay deals with T1, human IL-1α. Briefly: Table 60 heading; dAbs from selection on antigen.
In the case of B1, the binding result is given as “binds”. With B2, the binding result was “binds”.

In the case of B3, the binding result is recorded as “binds”. Regarding B4, the binding result is listed as “binds”. Regarding B5, the binding result is recorded as “binds”. Turning to B6, the binding result is given as “binds”. Still for that read-out and setting: next, B7: “binds”; B8: “binds”. B9: the binding result is recorded as “binds”. Regarding B10, the binding result is “binds”. For B11, the binding result was “binds”. On to B12, for which the binding result is listed as “binds”. Consider B13, for which the binding result is on record as “binds”.

Consider B14, for which the binding result is listed as “binds”. In the case of B15, the binding result is “binds”. On the same count and under the same terms, in the case of B16 it was “binds”; in that of B17, “binds”; in that of B18, “binds”.

The target in another assay is T2, human IL-1β (human, UniProt P01584 117-269).
T2 construct: also called IL-1beta; hIL-1β
Briefly: Table 60 heading; dAbs from selection on antigen.
With B19, the binding result is “binds”. Regarding B20, the binding result was “binds”. As for B21, the binding result is recorded as “binds”. In the case of B22, the binding result was “binds”. For B23, the binding result is given as “binds”.

On to B24, for which the binding result is on record as “binds”. On to B25, for which the binding result is reported as “binds”. Consider B26, for which the binding result is given as “binds”.

As for B27, the binding result is “binds”.

A further assay has as its target T3, human IL-1β (human, UniProt P01584 117-269).
T3 construct: also called hIL-1β; rhIL-1 beta
Briefly: yeast surface Fab display, flow cytometry titration. In general terms: Flow cytometry measures light scatter and fluorescence of single cells or particles in a stream.
The molecule B28 yielded a concentration for a half-maximal effect (EC50) of 5.78 nM. This counts as single-digit nanomolar.

For the molecule B29, the midpoint of the response, the EC50, lay at 0.522 nM. This EC50 is about 11-fold lower than that of the molecule before. On the same count and under the same terms, next, B30: 0.474 nM.
